From the DeepSol protein solubility set

assay: soluble on expression in E. coli; label from the status in PepcDB or PDB records

Sequence | soluble on expression in E. coli
TDQGSTGIYYISIEGLVYPIRLEKEYINSFSLSPDEQHFIASVTKPDRPSELYSIPLGQEEKQLTGANDKFVREHTISIPEEIQYATEDGVMVNGWLMRPAQMEGETTYPLILNIHGGPHMMYGHTYFHEFQVLAAKGYAVVYINPRGSHGYGQEFVNAVRGDYGGKDYDDVMQAVDEAIKRDPHIDPKRLGVTGGSYGGFMTNWIVGQTNRFKAAVTQRSISNWISFHGVSDIGYFFTDWQLEHDMFEDTEKLWDRSPLKYAANVETPLLILHGERDDRCPIEQAEQLFIALKKMGKETKLVRFPNASHNLSRTGHPRQRIKRLNYISSWFDQHL | not soluble
MSLANGVWSLQPLADMSAAEFRDWQVLLENRTGVVLNEQRRTFLQTSLTARMRELGIGDYHSYYRQVTDGPRGAVEWAILLDRLTVQETRFFRHPPSFELLERYLGERLGREGMPRPWALWSVGCSSGEEPYSMAMCAAQALRGWQRGDFFGVTGTDISLHALQRARAANYPARKLEQLPAEMVERYCERQADGSFSVKTILTGRVCCARLNVLDLAKAPWSGMDVIFCQNLLIYFRRWRRREILNRLAERLAPGGLLVIGVGEVVDWSHPELEPVADERVLAFTRKGEGHHHHHH | soluble
MKHLLPFATVILALGIVGCQKVETTAPEKIKQDTQTKQQVSVTPERPSDAELNAVKVYHHMKYMEATAKLAGGTNKLLHTKKLPTEGSDAVVTPALDHLYSKGVIDLSNGPVTIEYPEVDEGRYYSIHVTDQEHYTIFDKIHPVGKFTFVRKGKNMEVPEGATVIESPGDYPHLFIRVQVKTPEDLVNALSIQEKITLTANSSKTLIVDNPIKHTLATHDVYSQNKELMVSSVNFTHQDYLRVSEYLGVVAPNMGPTGNIGLFGPIDSNEPNSDDYLFRAVGIIGHLGLPLEHAYYGPYFTNCENQLLMGDKTEVFTLPYEPEGVELFWSVTRYSALTRNTLPGKNDLINAYNTKPDANGNISITFSADSPNDGTYWMPVNSGEPYYFVVRYYKPDVNNLPEKPCSLEHHHHHH | not soluble
MSLKVEYFSDSSAVPHLHLENEDSYSVTDDLFIVADGVGSYEGSKDASRYAVNYLSKMAKEIQSKEQLVEEIIKLSEEIKSIGIISGRPLMSTTISVLKISTEKYITANVGDSPIVLLRSGKLYKLYIDDSERSSTGNRFALEQAFGWNHVIVHSFEGKLEKGDLFIICTDGVSDNLSDEYDLYSILRELDAQTIVRLALNKGIKPDDATIIKVYVTMAEGHHHHHH | soluble
MNITATSLDSEDELSIKYMDAVDNINILKRYGCDIQHEVDVHTMSFDNSLSLQRYDRIVFNFPHAGSRFFGRELSSRAIESHKELVRGFLENAKEMLEEDGEIHITHKTTYPFSDWGIKKLGKGEGLKLLKKSKFELSHYPGYITKRGSGGRRSDDYFPVDVDPCDLKGFEVLEIYHPSMSDGFVNSVMVARKLTDRLIKYEWCTGTRSLNSLKKTRQTEPDQFNKREINRSGPGQVAEEEEEVVAVMMMMTSLGGGAGGGGGGGGSGGGRFVTYPPPLSVPPSAPQSPNFSGGLRSQPSFLVEQEKYLSELLAERHKLTPFLPVLPHVCRLMNQEILRVTTLLENALSQSRFDHPSPLASGGIFQNSRADMNGWASQFPSERSVSSSPAPNWLNSPGSSSGLIVKRTIRVDIPVDKYPNYNFVGRLLGPRGNSLKRVEASTDCRVLIRGRGSIKDPIKEDMMRGKPGYEHLNEPLHILVEAELPIEIVDARLMQAREILDDLLTPVEETHDFYKKQQLRELALLNGSLREEGSPMSGSISPYNSLGMKRAKTRG | soluble
GNIESIENLQGIRALQQQAPQLLSSGLPNEQQFSLLKQAGVDVVINLMPDSSKDAHPDEGKLVTQAGMDYVYIPVDWQNPKVEDVEAFFAAMDQHKGKDVLVHCLANYRASAFAYLYQLKQGQNPNMAQTMTPWNDELAIYPKWQALLTEVSAKYGH | soluble
MGHHHHHHSHMAVASTSTSDGMLTLDLIQEEDPSPEEPTSCAESFRVDLDKSVAQLAGSRRRADSDRIQPSADRASSLSRPWEKTDKGATYTPQAPKKLTPTEKGRCASLEEILSQRDAASARTLQLRAEEPPTPALPNPGQLSRIQDLVARKLEETQELLAEVQGLGDGKRKAKDPPRSPPDSESEQLLLETERLLGEASSNWSQAKRVLQEVRELRDLYRQMDLQTPDSHLRQTTPHSQYRKSLM | not soluble
MAGIAMKLAKDREAAEGLGSHERAIKYLNQDYETLRNECLEAGALFQDPSFPALPSSLGFKELGPYSSKTRGIEWKRPTEICADPQFIIGGATRTDICQGALGDSWLLAAIASLTLNEEILARVVPLDQSFQENYAGIFHFQFWQYGEWVEVVVDDRLPTKDGELLFVHSAEGSEFWSALLEKAYAKINGCYEALSGGATTEGFEDFTGGIAEWYELRKPPPNLFKIIQKALEKGSLLGCSIDITSAADSEAVTYQKLVKGHAYSVTGAEEVESSGSLQKLIRIRNPWGQVEWTGKWNDNCPSWNTVDPEVRANLTERQEDGEFWMSFSDFLRHYSRLEICNLTPDTLTCDSYKKWKLTKMDGNWRRGSTAGGCRNYPNTFWMNPQYLIKLEEEDEDDEDGERGCTFLVGLIQKHRRRQRKMGEDMHTIGFGIYEVPEELTGQTNIHLSKNFFLTTRARERSDTFINLREVLNRFKLPPGEYVLVPSTFEPHKNGDFCIRVFSEKKADYQTVDDEIEANIEEIEANEEDIGDGFRRLFAQLAGEDAEISAFELQTILRRVLAKREDIKSDGFSIETCKIMVDMLDEDGSGKLGLKEFYILWTKIQKYQKIYREIDVDRSGTMNSYEMRKALEEAGFKLPCQLHQVIVARFADDELIIDFDNFVRCLVRLEILFKIFKQLDPENTGTIQLDLISWLSFSVLGKLAAALEHHHHHH | soluble
MAHHHHHHMGDNIEKRYSLALYNVGKKNKKINEITSDILFIKNNFLKDKSFLNFLHTPNIESREKLNFLKTECKKYNNNFSPITSNFLESLFDSKRIKFLQKIIEEFELLLMKERKEIKCVVYTAKEINNNEKQKIQESILFKLKNELKPLIEYKIDKSILGGLVLQIGNQVFDFSAKYKIEKIRSTLS | not soluble
MSLKRIVVANDLVGVGKVALSASIPLMASCLLEQVLLPTCLLSSHTGGGQNPVKHTTSSILDVFLTDWDNKRIKFDGIFIGYFTTTRDGQKLLEWLSRKQLPLILDPIMADNGKLYQGFSQKHIEIMIKLTQKAELVLPNISEACLLTQTAYLAKNYDEEDIRQVARKLAKLGPKQVVISGISFEEGSIGFAYYQSDSDQLTFHFGKQFPYHFYGTGDIASAIITAGFYYQLPLTQILDLVVSFLEKVLQNTLTLKRDLILGVAYESHLNYLTEGHHHHHH | not soluble
MTESEIHERFVDTYMHILKYVGDFVSVPTRPYKITFEAYTVMRMIATSEEPLTLVKIAKEQRVSRSAIARQINVLLDLKYIEQTTNTHDRRIKYLSLTPAGHKVEQEITTASEERFHQWVQVYGEKRASDTLRYINDAEQKATELGFSGFSGLHDKRGRHTEYSDPKTKN | not soluble
MGSDKIHHHHHHAELAELFEVSVRTIYRDIETINRAGIPIVTSQGSGGGIGIMETYRLEREWLKEEELFAIASALQSVSSMYEPVSHSTAYQKIKHLIPEQSTQAFKHQTEKWFIDMTAWGHTEDQKTLREKISAAIDRLLTISFTYTSASGETLLRETEPYTLVCKAGHWYLYAYCLVRNDFRFFKLNRMKDLAILHQTFIRKDIQLDTLPWDKSWYQKDRLTELVILVQPSARQRIGEWFGYDVLHCCEEDEICQAVISLPEDQWLIGFLLQFGKDIEVLQPLHIRDKVKETIHHMQKIYET | not soluble
MSLNSEWGKFALWLKHQRISPAELLVPQPQEKLTGWSDPRISQERILGLLARGHSLALAVDKWQRAGLWILTRGDADYPVRLKNRLRTDAPPVLFGCGNKALLQAEGMAIVGSRDAPTDDLRYTQQLAAKLAQQGICVISGGARGIDECAMASALEAGGTAVGVLADSLLKTSTLVKWREGLIAGNLVLISPFYPEVRFTVGNAMARNKYIYCLAESAMVVRAGMTGGTITGAMEALKHQWLPVQVKPNQDMQSANSRLVENGASWSAEQAENVTIRLPDVPGLMYDRAEGHHHHHH | soluble
RKDFTKEEVNYLFHGVKTMGNHWNSILWSFPFQKGRRAVDLAHKYHRLI | soluble
ITLKYNYTVTLKDDGLYDGVFYDHYNDQLVTKISYNHETRHGNVNFRADWFNISRSPHTPGNDYNFNFWYSLMKETLEEINKNDSTKTTSLSLITGCYETGLLFGSYGYVETANGPLARYHTGDKRFTKMTHKGFPKVGMLTVKNTLWKDVKAYLGGFEYMGCSLAILDYQKMAKGKIPKDTTPTVKVTGNELEDGNMTLECTVNSFYPPDVITKWIESEHFKGEYKYVNGRYYPEWGRKSNYEPGEPGFPWNIKKDKDANTYSLTDLVRTTSKMSSQPVCVVFHDTLEAQVYTCSEGCNGELYDHLYRKTEEGEGGSHHHHHH | soluble
MRSRRGLLIVLSGPSGVGKGTVRKELFSHEDTRFQYSISVTTRKPREGEVDGVDYFFKEREEFEEMIRNEKLLEWAEFVGNYYGTPIDYVEKTLQEGKDVFLEIEVQGAIQVKKAFPEGVFIFLAPPSLSELKNRIVGRGTETEDVIENRLTVAKEEIDMMDAYDYVVENDQVELACERIKAIVVGEHCRRERVAKYYKEMTEGL | not soluble
AHHHHHHGSPCYNLKNKVAIVTGGGQGIGAAIAQLFAENGAKVVLAEIDEEAGLEREAMLRERGLDVTFIKTDVADEESVKNMVKKTVELYGGVDILVNNAAIMSVKSIFERTLEEWERVIRVNLTGPYICSRYAAEEMIKRGGGVIINIASTRALMSEPDTEPYSASKGGLLALTHSLAISLAKYRIRVVAVSPGWIETSRWKKSKLRSEPKLRPIDHEQHPAGRVGDPMDIAHICAFLADNEKAGFITGVNFVVDGGMTVKMIYAD | not soluble
MTIFRPGLLTTIQDLGRTGYLKYGVIVSGPMDEYAHRMANLLVGNDEKAALLEMTFIGPTIQFTSDQLIAMTGGDLSPTIDGHSVPMYRPVFVKKGAVLSFGRCKTGCRSYLAIGGGIDVPKVMNSRSTYLRAKIGGFQGRALVEGDELICGAPPEQTERLVKTCQKGIVHSFATTKWSVVSSQRSRDGAEKVVRVTVGSHYEQFSEASQHKFFSETFQVTSKSDRMGYRLKGPTLERLEEQELISEPISVGTIQVPADGNPIILMADRQTTGGYPRIAHVIAVDLPIIAQAKPGAAIRFQQASLKEAERLYIRRAREFNELKTSIYLQTRLEHHHHHH | not soluble
MGSDKIHHHHHHMNAHTIPELRYAMSREAIIGHETAWKVSSFGVAQYLHGYDPALLAAIEEAALKLKDSHAVHKHLDLTFITGADRFIPEIKELLHDKLRLERLSDMMGTKLEPYPLSIVGSTVTFMNPRDGAVEWHCDGVPVTELIPLSISNPLVGGHLEIYCDDSETGRAILESGREIPRNRIMRIDHKMNYATLGQFLGVLHRTAPIQYGERVTLVLNQRSVAKPYVDDNRMFYLAADNDHDREWVNELAEDVWTNQLPAYRRFEAEHPTPAPASETQVSGGARGSW | not soluble
TQKSLSNFLLSMQEAFSLGEEDRLLAVTTVAFDISALELYLPLISGAQIVIAKKETIREPQALAQMIENFDINIMQATPTLWHALVTSEPEKLRGLRVLVGGEALPSGLLQELQDLHCSVTNLYGPTETTIWSAAAFLEEGLKGVPPIGKP | not soluble
ERVKWRKQIEASGARLKSMIDQTPAPTLVLMGDNLVIEQVNTSMLKLLGHEENIVGIPLLTLMPELKGQYIWEQVEKVYREGIPFDQSEVRVSHKRTGMMEDYYYNIAYRPLKEDGRITGMIQVAIDVT | not soluble
MKDKYLIIDGYNMIGQSPELGKIAKDNLQEAREQLLDAIANYNAVVADEIVCVFDAYEQSGIEREYIYHGVKTVFTKEKETADSYIERYVYNLYNKHTTHITVVTSDMSEQHAIFGAGAYRVSSREMWRDLRENEITVSKSLDDFTESKPRTRISLSNDVLAEFEKIRRGNHNKDLEHHHHHH | not soluble
